Among the data in article PMC179894 are second-order rate constant of inhibition values, retold here.

What all share (assay): enzyme inhibition kinetics
In assay [1] the target is thrombin (UniProt P00734).
Assay [2] concerns the target plasmin (UniProt P00747).
The target in assay [3] is single-chain tissue-type plasminogen activator.

Chain of wild type plasminogen activator inhibitor-1 (recombinant, baculovirus system) (P05121 24-402): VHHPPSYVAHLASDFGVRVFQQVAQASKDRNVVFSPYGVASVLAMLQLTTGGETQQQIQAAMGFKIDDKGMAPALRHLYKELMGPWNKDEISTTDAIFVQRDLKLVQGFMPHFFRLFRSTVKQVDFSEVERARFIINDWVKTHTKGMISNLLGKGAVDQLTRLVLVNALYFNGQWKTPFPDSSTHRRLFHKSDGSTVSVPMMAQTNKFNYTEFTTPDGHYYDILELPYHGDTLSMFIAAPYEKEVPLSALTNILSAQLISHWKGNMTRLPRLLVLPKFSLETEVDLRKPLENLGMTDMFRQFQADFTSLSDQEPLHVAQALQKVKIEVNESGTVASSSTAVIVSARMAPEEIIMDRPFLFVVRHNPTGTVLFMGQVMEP

For “wild type plasminogen activator inhibitor-1 (recombinant, baculovirus system) (from UniProt P05121 24-402) (natural protein)”, the second-order rate constant of inhibition amounted to 720 M⁻¹ s⁻¹ in assay [1], 31000 M⁻¹ s⁻¹ in assay [2] and 2.11e+07 M⁻¹ s⁻¹ in assay [3].
